Experiment [1] has as its target purchased CTNI antigen (UniProt P19429). As to the kind of experiment: fluorescent chromatography card, sandwich; coated on T line; 3 ng/ml.
Experiment [2] has the same target. As to the kind of experiment: fluorescent chromatography card, sandwich; coated on T line; 18 ng/ml.
Experiment [3] has the same target. In words: fluorescent chromatography card, sandwich; coated on T line; 0.7 ng/ml.
The target is the same in experiment [4]. As to the kind of experiment: fluorescent chromatography card, sandwich; coated on T line; 0.04 ng/ml.
Experiment [5] shares this target. As to the kind of experiment: fluorescent chromatography card, sandwich; coated on T line; 0.08 ng/ml.
Experiment [6] shares this target. As to the kind of experiment: fluorescent chromatography card, sandwich; coated on T line; 0.15 ng/ml.
Experiment [7] has the same target. In words: fluorescent chromatography card, sandwich; coated on T line; 10.5 ng/ml.
The target is the same in experiment [8]. As to the kind of experiment: fluorescent chromatography card, sandwich; coated on T line; 0 ng/ml (blank, no antigen).
Experiment [9] has the same target. As to the kind of experiment: fluorescent chromatography card, sandwich; coated on T line, other CTNI antibody on fluorescent microspheres; 50 ng/ml.

Sequence of UniProt P19429 (P19429 2-210 limits assumed): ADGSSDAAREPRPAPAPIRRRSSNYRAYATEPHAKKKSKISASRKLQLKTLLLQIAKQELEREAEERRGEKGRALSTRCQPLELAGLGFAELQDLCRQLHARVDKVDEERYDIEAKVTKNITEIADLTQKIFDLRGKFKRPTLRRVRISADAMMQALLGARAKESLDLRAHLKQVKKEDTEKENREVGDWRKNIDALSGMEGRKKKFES

B1: Anti-cTnI-21C5 monoclonal antibody (antibody, from another filing, V domains shown)
VH: EVQLQQSGPELVKPGASVKMSCKASGYSFTLYVVHWVKQKPGQGLEWIGYIQPYLDGTRYNEKFKGKATLTVDKSSSTAFMELSSLTSEDSAVYYCARTGYGGYGLAWLAYWGQGTLVTVSA
VL: QAVVIQESALTTSPGETVTLTCRSSSGAATTSQYANWVQEKPDHLFTGLIGGSNNRAPGVPARFSGSLIGDKAALTITGAQTEDEAIYFCAIVYSNHWVFGGGTKLTVLG
Turning to B1, the fluorescence reading (name not given) in [1] was determined as 0.18; in experiment [2], 0.746; in experiment [3], 0.045; in experiment [4], 0.017; in experiment [5], 0.02; in experiment [6], 0.026. In addition, the fluorescence reading (name not given) in experiment [7] worked out at 0.45; in [8] it was 0.015; in experiment [9], 2.17.

The values above are taken from US20240270831A1.
